Source: US20210189432A1 (UNIVERSITY OF UTAH RESEARCH FOUNDATION, published 2021)

Experiments:
[1] = target: the molecule itself; assay: negative stain EM of purified protein (self-assembly)
[2] = target: the molecule itself; assay: formaldehyde crosslinking in situ in HEK293 cells, western blot
Description: Western blot samples were mixed with 4× Laemlli buffer (40% glycerol, 250 mM Tris, 4% SDS, 50 mM DTT, pH 6.8) and heated at 70° C. for 5 min. SDS-PAGE gel electrophoresis was used to separate protein samples. Separated samples were transferred to a nitrocellulose membrane (GE Healthcare). Following transfer, membranes were briefly stained with 0.1% Ponceau stain, then destained with 1% acetic acid to remove background, for imaging of total protein. […] Membranes were washed 3×10 min in 1×TBS, then incubated in an HRP-conjugated secondary antibody (Jackson ImmunoResearch) in block for 1 h at RT. After 3×10 min in 1×TBS, a chemiluminescent kit (Bio-Rad, Hercules, Calif.) was used to detect the protein bands, and the membranes were imaged on an Azure c300 gel dock (Azure Biosystems, Dublin, Calif.). Blots were analyzed and quantified using the Gel Analysis plugin in ImageJ.
Media was removed and pelleted cells were then crosslinked with 0.4% formaldehyde in PBS for 10 min with rocking at RT. Cell suspensions were immediately quenched with Tris to a final concentration of 50 mM and repelleted. […] Lysates were cleared by centrifugation at 21,000×g for 10 min at 4° C. and cleared supernatants were then run on a 4%-8% gradient gel and analyzed via western blot with antibodies for Arc (mouse monoclonal, Santa Cruz) and GFP (chicken polyclonal, Ayes).

B1: Drosophila Arc homolog dArc1 (Drosophila Arc1, NP_610955.1) (other, UniProt Q7K1U0 1-254, looked up)
chain: MAQLTQMTNEQLRELIEAVRAAAVGAAGSAAAAGGADASRGKGNFSACTHSFGGTRDHDVVEEFIGNIETYKDVEGISDENALKGISLLFYGMASTWWQGVRKEATTWKEAIALIREHFSPTKPAYQIYMEFFQNKQDDHDPIDTFVIQKRALLAQLPSGRHDEETELDLLFGLLNIKYRKHISRHSVHTFKDLLEQGRIIEHNNQEDEEQLATAKNTRGSKRTTRCTYCSFRGHTFDNCRKRQKDRQEEQHEE
- binding result [1]: binds

B2: myc-Arc-WT (full-length rat WT Arc expressed in HEK293 cells) (other)
chain: MELDHMTTGGLHAYPAPRGGPAAKPNVILQIGKCRAEMLEHVRRTHRHLLTEVSKQVERELKGLHRSVGKLENNLDGYVPTGDSQRWKKSIKACLCRCQETIANLERWVKREMHVWREVFYRLERWADRLESMGGKYPVGSEPARHTVSVGVGGPEPYCQEADGYDYTVSPYAITPPPAAGELPEQESVGAQQYQSWVPGEDGQPSPGLDTQIFEDPREFLSHLEEYLRQVGGSEEYWLSQIQNHMNGPAKKWWEFKQGSVKNWVEFKKEFLQYSEGTLSREAIQRELDLPQKQGEPLDQFLWRKRDLYQTLYVDAEEEEIIQYVVGTLQPKFKRFLRHPLPKTLEQLIQRGMEVQDGLEQAAEPSVTPLPTEDETEALTPALTSESVASDRTQPE
notes: Crosslinked in situ inside transfected HEK293 cells with formaldehyde; also called WT myc-Arc; not shown: myc tag of pRK5-myc-Arc
- binding result [2]: binds
